# Test results: US20170051065A1 (Hoffmann-La Roche, published 2017)
# Columns and labels:
# [1] = target: human mutant CSF-1R L301S Y969F (human) (UniProt P07333); assay: cell-based or functional assay
# [2] = target: human wildtype CSF-1R (wt CSF-1R) (human, UniProt P07333 20-972); assay: cell-based or functional assay
substance,measurement,setting,value
goat polyclonal anti-CSF-1R antibody ab10676 (abcam),"Mutant CSF-1R IC30 (cell viability of NIH3T3 mutant CSF-1R spheroids, CellTiterGlo)",[1],> 20 µg/mL
same,inhibition of cell viability at 20 µg/ml (mutant CSF-1R spheroids),[1],0%
same,"wtCSF-1R IC30 (cell viability of NIH3T3-CSF-1R spheroids, CellTiterGlo)",[2],14.2 µg/mL
